According to patent US20230174635A1:

Target: BMP4/7 heterodimer (human) (UniProt P12644)
Assay: cell-based or functional assay

Chain of BMP4/7 heterodimer (human) (P12644 293-408, chain 1 of 2): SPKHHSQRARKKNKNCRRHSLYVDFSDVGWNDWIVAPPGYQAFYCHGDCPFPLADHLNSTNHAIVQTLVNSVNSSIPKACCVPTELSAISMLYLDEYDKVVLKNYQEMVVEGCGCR
Chain of BMP4/7 heterodimer (human) (P18075 293-431, chain 2 of 2, further chain): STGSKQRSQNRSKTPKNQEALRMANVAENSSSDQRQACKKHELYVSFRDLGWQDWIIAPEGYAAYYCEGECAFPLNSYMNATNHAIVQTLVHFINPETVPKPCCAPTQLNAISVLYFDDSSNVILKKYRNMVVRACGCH

- IC50 (geometric mean, N=2), inhibition of BMP4/7 signalling, Hek-Id1 reporter gene assay: 1.6 nM
Substance: Gremlin 1 Full length (from UniProt O60565 25-184) (ligand)
